Laboratory results: patent EP3964526A1 (Novartis AG, dated 2022)

B1: 509-max (scFv)
chain: EIVMTQSPSTLSASVGDRVIITCQASQNIRIWLSWYQQKPGKAPKLLIYKASTLESGVPSRFSGSGSGTEFTLTISSLQPDDFATYYCQNNAHYSTNGGTFGQGTKLTVLGGGGGSGGGGSGGGGSGGGGSEVQLVESGGGLVQPGGSLRLSCTASGFSLSSYYMCWVRQAPGKGLEWVGCLDYVGDTDYASWAKGRFTISKDASKNTVYLQMNSLRAEDTAVYYCARTDDSRGWGLNIWGQGTLVTVSS
B2: EP34_max (scFv)
chain: EIVMTQSPSTLSASLGDRVIITCQSSQSVYGNIWMAWYQQKSGKAPKLLIYQASKLASGVPSRFSGSGSGAEFSLTISSLQPDDFATYYCQGNFNTGDRYAFGQGTKLTVLGGGGGSGGGGSGGGGSGGGGSEVQLVESGGGLVQPGGSLRLSCTASGFTISRSYWICWVRQAPGKGLEWVACIYGDNDITPLYANWAKGRFPVSTDTSKNTVYLQMNSLRAEDTAVYYCARLGYADYAYDLWGQGTLVTVSS
B3: EP35_max (scFv)
chain: EIVMTQSPSTLSASVGDRVIITCQASQSISNLLAWYQQKPGKAPKLLIVAASKLASGVPSRFSGSGSGTEFTLTISSLQPDDFATYYCQQGWSHTNVDNTFGQGTKLTVLGGGGGSGGGGSGGGGSGGGGSEVQLVESGGGSVQPGGSLRLSCTASGFSFSVGYWICWVRQAPGKGLEWVACIDAGTSGGTYYATWAKGRFTISKDTSKNTVYLQMNSLRAEDTATYYCARGVSSNGYYFKLWGQGTTVTVSS
B4: EP15_max (scFv)
chain: EIVMTQSPSTLSASVGDRVIITCQASENIYTSLAWYQQKPGKAPKLLIYSASTLASGVPSRFSGSGSGTEFTLTISSLQPDDFATYYCQQGFATSNVENPFGQGTKLTVLGGGGGSGGGGSGGGGSGGGGSEVQLVESGGGSVQPGGSLRLSCTVSGFSLSRYGVSWVRQAPGKGLEWVGAIGETGRAYYANWAKSRSTISRDTSKNTVYLQMNSLRAEDTATYYCARGEEFNNGWGAFNIWGQGTTVTVSS
B5: EP6_min (scFv)
chain: EIVMTQSPSTLSASVGDRVIITCQASESIYSGLAWYQQKPGKAPKLLIYQASTLASGVPSRFSGSGSGAEFTLTISSLQPDDFATYYCQQGFGTSNVENPFGQGTKLTVLGGGGGSGGGGSGGGGSGGGGSEVQLVESGGGLVQPGGSLRLSCAASGFSLSRYGVSWVRQAPGKGLEWVSTIGEAGRAYYANWARSRFTISRDNSKNTLYLQMNSLRAEDTAVYYCAKGEVFNNGWGAFNIWGQGTLVTVSS
B6: EP6_max (scFv)
chain: EIVMTQSPSTLSASVGDRVIITCQASESIYSGLAWYQQKPGKAPKLLIYQASTLASGVPSRFSGSGSGTDFTLAISSLQPDDFATYYCQQGFGTSNVENPFGQGTKLTVLGGGGGSGGGGSGGGGSGGGGSEVQLVESGGGLVQPGGSLRLSCTVSGFSLSRYGVSWVRQAPGKGLEWVGTIGEAGRAYYANWARSRSTISRDTSKNTVYLQMNSLRAEDTAVYYCARGEVFNNGWGAFNIWGQGTLVTVSS
B7: EP19_max (scFv)
chain: EIVMTQSPSTLSASVGDRVIITCQASDNIYRGLAWYQQKPGKAPKLLIYDASTLQSGVPSRFSGSGSGTQFTLTISSLQPDDFATYYCLGVYGYSSDDGAAFGQGTKLTVLGGGGGSGGGGSGGGGSGGGGSEVQLVESGGGLVQPGGSLRLSCTVSGFSLNSNEISWVRQAPGKGLEWVGYIGNGGMTHYASWAKGRFTISRDTSKNTVYLQMNSLRAEDTAVYYCASSVEYTDLYYLNIWGQGTLVTVSS
B8: EP1_max (scFv)
chain: EIVMTQSPSTLSASVGDRVIITCQSTESVYKNNYLAWYQQKPGKAPKLLIYDASTLASGVPSRFSGSGSGTEFTLTISSLQPDDFATYYCAGYYRSGSGTANGSFGQGTKLTVLGGGGGSGGGGSGGGGSGGGGSEVQLVESGGGSVQPGGSLRLSCTVSGIDLSNDAISWVRQAPGKGLEWVAYISDWSIRYYANWAQGRFTISKDTSKNTVYLQMNSLRAEDTATYYCARGAPGAGDNGIWGQGTTVTVSS
B9: EP42_max (scFv)
chain: EIVMTQSPSTLSASVGDRVIITCQSTESVYKNNYLAWYQQKPGKAPKLLIYDASTLASGVPSRFSGSGSGTEFTLTISSLQPDDFATYYCAGYYRSGFGTANGSFGQGTKLTVLGGGGGSGGGGSGGGGSGGGGSEVQLVESGGGSVQPGGSLRLSCTVSGIDLRNDAISWVRQAPGKGLEWVSYISDWGIKYYASWVKGRFTISKDTSKNTVYLQMNSLRAEDTATYYCARGAPGAGDNGIWGQGTTVTVSS
B10: EP42_min (scFv)
chain: EIVMTQSPSTLSASVGDRVIITCQSTESVYKNNYLAWYQQKPGKAPKLLIYDASTLASGVPSRFSGSGSGAEFTLTISSLQPDDFATYYCAGYYRSGFGTANGSFGQGTKLTVLGGGGGSGGGGSGGGGSGGGGSEVQLVESGGGLVQPGGSLRLSCAASGFTFRNDAISWVRQAPGKGLEWVSYISDWGIKYYASWVKGRFTISRDNSKNTLYLQMNSLRAEDTAVYYCAKGAPGAGDNGIWGQGTLVTVSS
B11: EP43_min (scFv)
chain: EIVMTQSPSTLSASVGDRVIITCQASQSISDWLAWYQQKPGKAPKLLIYGASRLASGVPSRFSGSGSGAEFTLTISSLQPDDFATYYCQQGWSDSYVDNLFGQGTKLTVLGGGGGSGGGGSGGGGSGGGGSEVQLVESGGGLVQPGGSLRLSCAASGFSLSSGAMSWVRQAPGKGLEWVSVIISSGATYYASWAKGRFTISRDNSKNTLYLQMNSLRAEDTAVYYCAKGGPDDSNSMGTFDPWGQGTLVTVSS
B12: EP43_max (scFv)
chain: EIVMTQSPSTLSASVGDRVIIKCQASQSISDWLAWYQQKPGKAPKLLIYGASRLASGFPSRFSGSGSGAEFTLTISGLEPADFATYYCQQGWSDSYVDNLFGQGTKLTVLGGGGGSGGGGSGGGGSGGGGSEVQLVESGGGLVQPGGSLRLSCTVSGFSLSSGAMSWVRQAPGKGLEWVGVIISSGATYYASWAKGRFTISKDTSKNTVYLQMNSLRAEDTAVYYCARGGPDDSNSMGTFDPWGQGTLVTVSS
B13: EP15_min (scFv)
chain: EIVMTQSPSTLSASVGDRVIITCQASENIYTSLAWYQQKPGKAPKLLIYSASTLASGVPSRFSGSGSGAEFTLTISSLQPDDFATYYCQQGFATSNVENPFGQGTKLTVLGGGGGSGGGGSGGGGSGGGGSEVQLVESGGGLVQPGGSLRLSCAASGFTFSRYGVSWVRQAPGKGLEWVSAIGETGRAYYANWAKSRFTISRDNSKNTLYLQMNSLRAEDTAVYYCAKGEEFNNGWGAFNIWGQGTLVTVSS
B14: 435-max (scFv)
chain: EIVMTQSPSTLSASVGDRVIITCQASQSIGSSLAWYQQKPGKAPKLLIYTAANLASGVPSRFSGSRSGAEFTLTISSLQPDDFATYYCQNFATSDTVTFGQGTKLTVLGGGGGSGGGGSGGGGSGGGGSEVQLVESGGGLVQPGGSLRLSCKASGFSLNTNYWMCWVRQAPGKGLEWVGCMYTGSYNRAYYASWAKGRFTSSKDTSKNTVYLQMNSLRAEDTAVYYCAKGSNWYSDLWGQGTLVTVSS
B15: 610-min (scFv)
chain: EIVMTQSPSTLSASVGDRVIITCQASQSISSWLSWYQQKPGKAPKLLIYQASTLASGVPSRFSGSGSGAEFTLTISSLQPDDFATYYCQNNYGFRSYGGAFGQGTKLTVLGGGGGSGGGGSGGGGSGGGGSEVQLVESGGGLVQPGGSLRLSCAASGIDFSGAYYMGWVRQAPGKGLEWVSYIDYDGDRYYASWAKGRFTISRDNSKNTLYLQMNSLRAEDTAVYYCAKSDYSSGWGTDIWGQGTLVTVSS
B16: 610-max (scFv)
chain: EIVMTQSPSTLSASVGDRVIITCQASQSISSWLSWYQQKPGKAPKLLIYQASTLASGVPSRFSGSGSGTEFTLTISSLQPDDFATYYCQNNYGFRSYGGAFGQGTKLTVLGGGGGSGGGGSGGGGSGGGGSEVQLVESGGGLVQPGGSLRLSCTASGIDFSGAYYMGWVRQAPGKGLEWVGYIDYDGDRYYASWAKGRFTISKDTSKNTVYLQMNSLRAEDTAVYYCARSDYSSGWGTDIWGQGTLVTVSS
B17: 534-max (scFv)
chain: EIVMTQSPSTLSASVGDRVIITCQASQSINIWLSWYQQKPGKAPKLLIYKESTLASGVPSRFSGSGSGTEFTLTISSLQPDDFATYYCQNNYDSGNNGFPFGQGTKLTVLGGGGGSGGGGSGGGGSGGGGSEVQLVESGGGLVQPGGSLRLSCTASGFSLSYYYMSWVRQAPGKGLEWVGIIGPGDYTDYASWAKGRFTISKDTSKNTVYLQMNSLRAEDTAVYYCARGDDNSGWGEDIWGQGTLVTVSS
B18: 375-min (scFv)
chain: EIVMTQSPSTLSASVGDRVIITCQASENINIWLSWYQQKPGKAPKLLIYQASKLASGVPSRFSGSGSGAEFTLTISSLQPDDFATYYCQNNYSYNRYGAPFGQGTKLTVLGGGGGSGGGGSGGGGSGGGGSEVQLVESGGGLVQPGGSLRLSCAASGFSFTTTDYMCWVRQAPGKGLEWVSCILAGDGSTYYANWAKGRFTISRDNSKNTLYLQMNSLRAEDTAVYYCAKSDPASSWSFALWGQGTLVTVSS
B19: 375-max (scFv)
chain: EIVMTQSPSTLSASVGDRVIITCQASENINIWLSWYQQKPGKAPKLLIYQASKLASGVPSRFSGSGSGTQFTLTISSLQPDDFATYYCQNNYSYNRYGAPFGQGTKLTVLGGGGGSGGGGSGGGGSGGGGSEVQLVESGGGLVQPGGSLRLSCKASGFSFTTTDYMCWVRQAPGKGLEWVGCILAGDGSTYYANWAKGRFTGSKDTSKNTVYLQMNSLRAEDTAVYYCARSDPASSWSFALWGQGTLVTVSS

What follows are binders tested against VEGF (as used in the VEGFR competition ELISA) (assay: competition ELISA against hVEGR1, EC50 ratio to reference Luc).
Sequence of VEGF (as used in the VEGFR competition ELISA) (P15692 whole entry): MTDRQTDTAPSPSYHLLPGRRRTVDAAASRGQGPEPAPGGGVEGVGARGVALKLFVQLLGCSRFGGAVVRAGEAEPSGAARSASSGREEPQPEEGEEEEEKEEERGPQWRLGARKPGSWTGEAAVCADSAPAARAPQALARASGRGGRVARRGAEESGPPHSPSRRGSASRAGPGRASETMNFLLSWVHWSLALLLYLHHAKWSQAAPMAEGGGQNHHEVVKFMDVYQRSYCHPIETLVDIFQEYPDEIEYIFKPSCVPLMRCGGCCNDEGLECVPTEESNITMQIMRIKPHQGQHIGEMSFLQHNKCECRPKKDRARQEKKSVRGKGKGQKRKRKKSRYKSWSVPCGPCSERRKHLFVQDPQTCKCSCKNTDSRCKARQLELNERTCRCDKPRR

B1 was tested, and the “Rel. activity hVEGR1 comp. ELISA (EC50Luc[nM]/EC50test[nM])” value was 13 ratio.

The binders below were run against T1, Human TNFa N-his trimers (human, UniProt P01375 77-233) (assay: SPR BIAcore T100, His-tagged human TNF trimers captured on NTA chip, scFv as analyte).
T1 construct: Captured at 5 nM on an NTA sensor chip by the N-terminal his-tags; also called His-tagged TNF (produced at ESBATech); not shown: N-terminal his-tag
T1 sequence (P01375 77-233 limits assumed): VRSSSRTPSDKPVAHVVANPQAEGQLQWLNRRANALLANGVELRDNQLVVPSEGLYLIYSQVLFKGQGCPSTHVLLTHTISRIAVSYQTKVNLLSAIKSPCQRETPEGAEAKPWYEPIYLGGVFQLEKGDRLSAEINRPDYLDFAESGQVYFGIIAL

In order of rising Kd:
1. B2  0.0286 nM
2. B3  0.194 nM
3. B12  0.251 nM
4. B6  0.512 nM
5. B4  1.48 nM
6. B7  2.91 nM
7. B9  3.46 nM
8. B8  56.9 nM
9. B10  58.7 nM
10. B5  106 nM
11. B13  262 nM
12. B11  5540 nM

What follows are binders tested against T2, recombinant human VEGF165 (PeproTech EC Ltd.) (human, UniProt P15692-4 27-191) (assay: SPR BIAcore T100, hVEGF165 amine-coupled on CM4 chip, scFv as analyte).
T2 construct: Amine-coupled to a CM4 sensor chip; also called hVEGF165
T2 sequence (P15692 other isoform, or with tags, fused parts or gaps limits assumed): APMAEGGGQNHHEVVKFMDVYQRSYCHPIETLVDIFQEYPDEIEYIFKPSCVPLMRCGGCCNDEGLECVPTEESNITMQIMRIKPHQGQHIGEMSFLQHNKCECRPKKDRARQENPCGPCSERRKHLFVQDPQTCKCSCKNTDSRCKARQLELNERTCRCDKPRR

In order of rising Kd:
1. B16  1.18 nM
2. B1  1.21 nM
3. B19  2.68 nM
4. B14  4.53 nM
5. B18  5.41 nM
6. B17  9.21 nM
7. B15  10.6 nM

In order of rising koff:
1. B16  0.000601 s⁻¹
2. B14  0.000755 s⁻¹
3. B15  0.00265 s⁻¹
4. B1  0.00272 s⁻¹
5. B18  0.00501 s⁻¹
6. B19  0.00655 s⁻¹
7. B17  0.0173 s⁻¹

In order of falling kon:
1. B19  2.44e+06 M⁻¹ s⁻¹
2. B1  2.26e+06 M⁻¹ s⁻¹
3. B17  1.88e+06 M⁻¹ s⁻¹
4. B18  927000 M⁻¹ s⁻¹
5. B16  509000 M⁻¹ s⁻¹
6. B15  251000 M⁻¹ s⁻¹
7. B14  167000 M⁻¹ s⁻¹
